T1: human CD19-Fc protein (AcroBiosystems, Cat. CD19-H5259 / Code CD9-H5259) (human, UniProt P15391 20-291)
T1 construct: not shown: Fc of the bought CD19-Fc
T1 sequence (looked up): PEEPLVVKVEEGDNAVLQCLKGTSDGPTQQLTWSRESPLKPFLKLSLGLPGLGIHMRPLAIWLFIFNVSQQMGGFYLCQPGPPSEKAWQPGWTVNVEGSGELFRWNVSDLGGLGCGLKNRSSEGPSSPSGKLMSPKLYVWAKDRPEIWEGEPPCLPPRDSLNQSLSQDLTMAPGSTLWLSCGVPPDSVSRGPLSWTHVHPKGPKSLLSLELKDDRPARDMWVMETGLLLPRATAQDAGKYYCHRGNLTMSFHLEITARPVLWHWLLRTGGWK

T2: human CD19 on cells (human, UniProt P15391 20-556)
T2 sequence (looked up): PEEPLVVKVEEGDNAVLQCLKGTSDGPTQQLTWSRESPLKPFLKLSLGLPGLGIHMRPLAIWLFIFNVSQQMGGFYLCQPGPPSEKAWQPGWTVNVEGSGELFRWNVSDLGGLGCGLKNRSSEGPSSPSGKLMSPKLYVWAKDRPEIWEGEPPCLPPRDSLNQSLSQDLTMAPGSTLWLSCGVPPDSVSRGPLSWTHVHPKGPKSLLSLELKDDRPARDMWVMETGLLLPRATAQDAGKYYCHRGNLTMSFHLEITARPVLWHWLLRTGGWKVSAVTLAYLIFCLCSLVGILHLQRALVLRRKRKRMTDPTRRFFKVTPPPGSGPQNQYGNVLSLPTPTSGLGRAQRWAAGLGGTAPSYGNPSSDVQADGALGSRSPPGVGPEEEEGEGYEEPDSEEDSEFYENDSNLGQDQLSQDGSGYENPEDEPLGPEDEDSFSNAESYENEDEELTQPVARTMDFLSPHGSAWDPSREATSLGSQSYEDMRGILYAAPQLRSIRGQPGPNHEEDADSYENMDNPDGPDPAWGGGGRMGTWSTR


Tests used:
[1] = target: T1, human CD19-Fc protein (AcroBiosystems, …); test: BiaCore SPR, ligand captured by Fc capture
Description: General procedure: Diluted human CD19 (AcroBiosystems, Cat. CD19-H5259) or human CD3E&3D (AcroBiosystems, Cat. CDD-H52W0) were captured on the sensor chip through Fc capture method. The capture time for human CD3E & CD3D and for human CD19 was set for 12 s and 12-30 s respectively and capture flow rate was […]. Each sample tested was serially diluted into 6-8 concentrations. The association time and dissociation time for the analytes were set for 180 s and 420 s respectively, and the flow rate for the analyte was set at […]. For surface regeneration, 10 mM Glycine-HCl buffer was used; the contact time was set for 30 s and the flow rate was […]. Flow cell 1 and blank injection of buffer in each cycle were used as double references for Response Units subtraction. All data were processed using BiaCore T2000 Evaluation software (version 3.1).

human CD19 on cells = target: T2, human CD19 on cells; test: cell-based or functional assay

Binder	Kd [1]	koff [1]	kon [1]	EC50 of cell killing (MTS cytotoxicity), Nalm-6, E:T=5:1 (human CD19 on cells)	EC50 of cell killing (MTS cytotoxicity), Nalm-6, E:T=10:1 (human CD19 on cells)	EC50 of cell killing (MTS cytotoxicity), REH (human CD19 on cells)	EC50 of cell killing (MTS cytotoxicity), Raji (human CD19 on cells)
anti-CD19 scFv (SCACD19) (scFv) scFv: DIQLTQSPASLAVSLGQRATISCKASQSVDYDGDSYLNWYQQIPGQPPKLLIYDASNLVSGIPPRFSGSGSGTDFTLNIHPVEKVDAATYHCQQSTEDPWTFGGGTKLEIKGCGGGSGGGGSGGGGSQVQLQQSGAELVRPGSSVKISCKASGYAFSSYWMNWVKQRPGQGLEWIGQIWPGDGDTNYNGKFKGKATLTADESSSTAYMQLSSLASEDSAVYFCARRETTTVGRYYYAMDYWGQGTTVTVSSHHHHHH	0.0653 nM	0.000343 s⁻¹	5.26e+06 M⁻¹ s⁻¹				
anti-CD19 scFv-Linker (anti-CD19-Linker) (scFv, conjugated to a linker (linker is a much smaller PEG11); the residue is not given, Linker conjugate of SCACD19; also called SCACD19-linker) scFv: DIQLTQSPASLAVSLGQRATISCKASQSVDYDGDSYLNWYQQIPGQPPKLLIYDASNLVSGIPPRFSGSGSGTDFTLNIHPVEKVDAATYHCQQSTEDPWTFGGGTKLEIKGCGGGSGGGGSGGGGSQVQLQQSGAELVRPGSSVKISCKASGYAFSSYWMNWVKQRPGQGLEWIGQIWPGDGDTNYNGKFKGKATLTADESSSTAYMQLSSLASEDSAVYFCARRETTTVGRYYYAMDYWGQGTTVTVSSHHHHHH	0.111 nM	0.000309 s⁻¹	2.79e+06 M⁻¹ s⁻¹				
JY108 (PEGylated BsAb anti-CD3 x anti-CD19) (bispecific antibody, conjugated through a linker to the branched terminal of mPEG (structure given only as a drawing); residue not given, also called PEGylated T-BsAb JY108) scFv 1: DIQLTQSPASLAVSLGQRATISCKASQSVDYDGDSYLNWYQQIPGQPPKLLIYDASNLVSGIPPRFSGSGSGTDFTLNIHPVEKVDAATYHCQQSTEDPWTFGGGTKLEIKGCGGGSGGGGSGGGGSQVQLQQSGAELVRPGSSVKISCKASGYAFSSYWMNWVKQRPGQGLEWIGQIWPGDGDTNYNGKFKGKATLTADESSSTAYMQLSSLASEDSAVYFCARRETTTVGRYYYAMDYWGQGTTVTVSS scFv 2: not shown	1.44 nM	0.000566 s⁻¹	392000 M⁻¹ s⁻¹	0.0376 µg/mL	0.0147 µg/mL	0.0104 µg/mL	0.159 µg/mL

Reference: patent US20240181074A1 (SHENZHEN ENDURING BIOTECH, published 2024)
